Laboratory results as given in patent US20230381229A1 (ALPINE IMMUNE SCIENCES, INC., published 2023).
Blank lines part the entries; values can stand above or below the binder they belong to.

What was measured:
human TIGIT = biological target: T1, human TIGIT (human); assay: flow cytometry, transfected HEK293 cells
T1 chain: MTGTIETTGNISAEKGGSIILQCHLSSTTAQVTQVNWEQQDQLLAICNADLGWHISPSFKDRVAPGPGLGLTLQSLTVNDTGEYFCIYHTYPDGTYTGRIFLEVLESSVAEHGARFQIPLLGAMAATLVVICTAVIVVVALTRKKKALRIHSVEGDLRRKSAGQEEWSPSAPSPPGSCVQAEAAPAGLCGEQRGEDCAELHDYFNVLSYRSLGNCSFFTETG

PD-1 = PD-1 (human); assay: cell-based or functional assay
PD-1 (human), sequence (chain, as listed by the source): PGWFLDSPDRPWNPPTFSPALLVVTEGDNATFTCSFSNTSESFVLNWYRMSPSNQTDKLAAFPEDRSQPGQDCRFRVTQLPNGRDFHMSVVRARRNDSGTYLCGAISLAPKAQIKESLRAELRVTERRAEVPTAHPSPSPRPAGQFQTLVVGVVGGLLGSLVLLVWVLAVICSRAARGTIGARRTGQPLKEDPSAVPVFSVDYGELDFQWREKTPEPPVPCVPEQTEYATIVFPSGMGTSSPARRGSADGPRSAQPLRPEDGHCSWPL

MFI at 25 nM (human TIGIT): 3000
B1: variant CD155 IgV-Fc V9L, V11M, P18S, N35S, S54G, Q62K, L79P, L104M, T107M, V115M (Fc fusion)
chain: WPPPGTGDLVMQAPTQVSGFLGDSVTLPCYLQVPSMEVTHVSQLTWARHGESGGMAVFHQTKGPSYSESKRLEFVAARPGAELRNASLRMFGLRVEDEGNYTCMFVMFPQGSRSMDIWLRVLGSGGGGSEPKSSDKTHTCPPCPAPEAEGAPSVFLFPPKPKDTLMISRTPEVTCVVVDVSHEDPEVKFNWYVDGVEVHNAKTKPREEQYNSTYRVVSVLTVLHQDWLNGKEYKCKVSNKALPAPIEKTISKAKGQPREPQVYTLPPSRDELTKNQVSLTCLVKGFYPSDIAVEWESNGQPENNYKTTPPVLDSDGSFFLYSKLTVDKSRWQQGNVFSCSVMHEALHNHYTQKSLSLSPGK

IFN gamma levels pg/ml (MLR) (PD-1): 1170 pg/mL
B2: Full length ECD of PD-L2 (ligand)
chain: LFTVTVPKELYIIEHGSNVTLECNFDTGSHVNLGAITASLQKVENDTSPHRERATLLEEQLPLGKASFHIPQVQVRDEGQYQCIIIYGVAWDYKYLTLKVKASYRKINTHILKVPETDEVELTCQATGYPLAEVSWPNVSVPANTSHSRTPEGLYQVTSVLRLKPPPGRNFSCVFWNTHVRELTLASIDLQSQMEPRTHPT
